Reference: publication PMC9071441 (2022)

B1: mNeonGreen-tagged T-bet DNA binding domain (aa 135-326), wild type [mouse] / mTagBFP-tagged GATA3 DNA binding domain (aa 259-369) [not stated] (parent complex)
chain 1: KLRVALSNHLLWSKFNQHQTEMIITKQGRRMFPFLSFTVAGLEPTSHYRMFVDVVLVDQHHWRYQSGKWVQCGKAEGSMPGNRLYVHPDSPNTGAHWMRQEVSFGKLKLTNNKGASNNVTQMIVLQSLHKYQPRLHIVEVNDGEPEAACSASNTHVFTFQETQFIAVTAYQNAEITQLKIDNNPFAKGFREN
chain 2: not shown

Variants of: B1
Assay: flow-cytometric FRET; HEK293T cells; parent: 0.036; read off a plot

Going from chain 1 Q126A to chain 1 E76A, the response rises from ~0.031 DFRET to ~0.043 DFRET.

Compared with chain 1 V124W, chain 1 K26A is lower in response: ~0.025 DFRET for the first, ~0.018 DFRET for the second.

Compared with chain 1 I123E, chain 1 R29A, chain 1 R30A is lower in response: ~-0.001 DFRET for the first, ~-0.004 DFRET for the second.

Going from chain 1 R190W to chain 1 K113L, the response rises from ~-0.001 DFRET to ~0.041 DFRET.
